Experimental data from patent US20100247562A1.

Tests used:
[1] = molecular target: human MUC1 (human) (UniProt P15941); experiment: co-immunoprecipitation with anti-HSP70, anti-MUC1 immunoblot, densitometry; lane 6 (taken to be FC/MUC1 fusion cells)
[2] = molecular target: human MUC1 (human) (UniProt P15941); experiment: co-immunoprecipitation with anti-HSP70, anti-MUC1 immunoblot, densitometry; lane 4 (taken to be MC38/MUC1 tumor cells)

Sequence of HSP70 (endogenous, immunoprecipitated with anti-HSP70 antibody Ab46 or purified by ADP-agarose from MC38/MUC1 tumor cells or FC/MUC1 DC-tumor fusion cells) (Q61696 2-641): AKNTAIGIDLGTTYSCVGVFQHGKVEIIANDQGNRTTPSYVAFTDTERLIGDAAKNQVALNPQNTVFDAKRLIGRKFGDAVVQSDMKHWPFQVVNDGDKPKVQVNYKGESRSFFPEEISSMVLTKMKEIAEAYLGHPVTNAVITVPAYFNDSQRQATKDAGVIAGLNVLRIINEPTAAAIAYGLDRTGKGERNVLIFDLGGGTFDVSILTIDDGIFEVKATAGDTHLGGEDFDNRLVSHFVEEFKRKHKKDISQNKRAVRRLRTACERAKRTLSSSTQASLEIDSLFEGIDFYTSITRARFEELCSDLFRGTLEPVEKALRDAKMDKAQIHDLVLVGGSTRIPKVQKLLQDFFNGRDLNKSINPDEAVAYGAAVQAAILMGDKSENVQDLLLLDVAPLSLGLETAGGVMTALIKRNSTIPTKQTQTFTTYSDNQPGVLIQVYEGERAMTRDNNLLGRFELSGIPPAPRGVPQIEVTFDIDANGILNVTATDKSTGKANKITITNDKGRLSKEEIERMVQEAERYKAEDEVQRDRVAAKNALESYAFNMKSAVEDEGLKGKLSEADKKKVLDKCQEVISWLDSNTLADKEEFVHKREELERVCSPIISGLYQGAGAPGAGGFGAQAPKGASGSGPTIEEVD
Sequence of UniProt P15941 (P15941 24-1255 limits assumed): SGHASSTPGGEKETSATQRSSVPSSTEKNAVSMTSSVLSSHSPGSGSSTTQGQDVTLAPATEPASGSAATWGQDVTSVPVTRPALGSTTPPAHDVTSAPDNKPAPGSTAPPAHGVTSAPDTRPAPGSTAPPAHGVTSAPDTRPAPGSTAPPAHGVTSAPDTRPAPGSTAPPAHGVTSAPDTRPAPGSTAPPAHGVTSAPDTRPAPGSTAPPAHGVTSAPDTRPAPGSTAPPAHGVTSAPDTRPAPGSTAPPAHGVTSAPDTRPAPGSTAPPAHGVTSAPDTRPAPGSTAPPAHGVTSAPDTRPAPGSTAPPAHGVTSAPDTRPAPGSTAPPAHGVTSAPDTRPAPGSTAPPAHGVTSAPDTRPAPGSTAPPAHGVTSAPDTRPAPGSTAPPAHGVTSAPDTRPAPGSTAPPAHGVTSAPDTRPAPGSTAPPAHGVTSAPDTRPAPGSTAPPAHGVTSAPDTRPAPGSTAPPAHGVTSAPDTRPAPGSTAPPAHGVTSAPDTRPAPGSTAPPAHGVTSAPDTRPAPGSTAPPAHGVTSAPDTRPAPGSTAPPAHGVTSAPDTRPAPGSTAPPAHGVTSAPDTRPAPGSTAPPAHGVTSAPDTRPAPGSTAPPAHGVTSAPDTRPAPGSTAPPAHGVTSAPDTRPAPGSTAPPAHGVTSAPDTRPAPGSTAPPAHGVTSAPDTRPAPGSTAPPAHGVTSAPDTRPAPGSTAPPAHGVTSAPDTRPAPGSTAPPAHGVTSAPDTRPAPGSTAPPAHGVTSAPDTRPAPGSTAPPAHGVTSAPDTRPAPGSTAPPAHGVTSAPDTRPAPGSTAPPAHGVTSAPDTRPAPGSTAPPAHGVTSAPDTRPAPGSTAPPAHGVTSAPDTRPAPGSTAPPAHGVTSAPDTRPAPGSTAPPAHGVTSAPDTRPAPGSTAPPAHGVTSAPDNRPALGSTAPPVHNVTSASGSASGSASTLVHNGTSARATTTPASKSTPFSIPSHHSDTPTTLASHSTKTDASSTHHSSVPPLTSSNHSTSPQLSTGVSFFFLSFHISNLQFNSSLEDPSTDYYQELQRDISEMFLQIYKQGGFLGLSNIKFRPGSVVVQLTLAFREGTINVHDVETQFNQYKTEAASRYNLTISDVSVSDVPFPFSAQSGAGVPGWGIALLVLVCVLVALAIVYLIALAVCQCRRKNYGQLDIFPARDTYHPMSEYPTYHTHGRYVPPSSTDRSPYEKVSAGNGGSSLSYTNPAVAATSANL

- relative density of MUC1 (lane 6) [1]: 41.5%
- relative density of MUC1 (lane 4) [2]: 10.7%
Substance: HSP70 (endogenous, immunoprecipitated with anti-HSP70 antibody Ab46 or purified by ADP-agarose from MC38/MUC1 tumor cells or FC/MUC1 DC-tumor fusion cells)
